# Test results published in patent US20220163515.
# Experiments:
# [1] = biological target: Pumby8_KD_4 (synthetic (from Homo sapiens Pumilio unit 6)) (UniProt Q14671); experiment: FP; conditions: 25 mM Tris-HCl pH 7.5, 0.5 mM EDTA, 50 mM KCl, 0.1 mg/mL BSA; active-fraction corrected
# [2] = biological target: Pumby8_KD_3 (synthetic (from Homo sapiens Pumilio unit 6)) (UniProt Q14671); experiment: FP; conditions: 25 mM Tris-HCl pH 7.5, 0.5 mM EDTA, 50 mM KCl, 0.1 mg/mL BSA; active-fraction corrected
# Pumby8_KD_3 (synthetic (from Homo sapiens Pumilio unit 6)), sequence (Q14671 1028-1063): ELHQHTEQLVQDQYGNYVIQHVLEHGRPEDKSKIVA
# Pumby8_KD_4 (synthetic (from Homo sapiens Pumilio unit 6)), sequence (Q14671 1028-1063): as above
Sequence,Kd [1] [nM],Kd [2] [nM]
CCAGAAUCAUGUCAGUUCG [KD_2/KD_4 cognate],0.439,–
CCAGAAUUGUAGAUAUUCG [KD_3 cognate],–,1.34
